{"source": "patent US20100226910", "biological_target": "Synthetic human amyloid protein Aβ1-42 or Aβ1-40 (UniProt P05067)", "sequence (P05067 whole entry, looked up, tested part not stated)": "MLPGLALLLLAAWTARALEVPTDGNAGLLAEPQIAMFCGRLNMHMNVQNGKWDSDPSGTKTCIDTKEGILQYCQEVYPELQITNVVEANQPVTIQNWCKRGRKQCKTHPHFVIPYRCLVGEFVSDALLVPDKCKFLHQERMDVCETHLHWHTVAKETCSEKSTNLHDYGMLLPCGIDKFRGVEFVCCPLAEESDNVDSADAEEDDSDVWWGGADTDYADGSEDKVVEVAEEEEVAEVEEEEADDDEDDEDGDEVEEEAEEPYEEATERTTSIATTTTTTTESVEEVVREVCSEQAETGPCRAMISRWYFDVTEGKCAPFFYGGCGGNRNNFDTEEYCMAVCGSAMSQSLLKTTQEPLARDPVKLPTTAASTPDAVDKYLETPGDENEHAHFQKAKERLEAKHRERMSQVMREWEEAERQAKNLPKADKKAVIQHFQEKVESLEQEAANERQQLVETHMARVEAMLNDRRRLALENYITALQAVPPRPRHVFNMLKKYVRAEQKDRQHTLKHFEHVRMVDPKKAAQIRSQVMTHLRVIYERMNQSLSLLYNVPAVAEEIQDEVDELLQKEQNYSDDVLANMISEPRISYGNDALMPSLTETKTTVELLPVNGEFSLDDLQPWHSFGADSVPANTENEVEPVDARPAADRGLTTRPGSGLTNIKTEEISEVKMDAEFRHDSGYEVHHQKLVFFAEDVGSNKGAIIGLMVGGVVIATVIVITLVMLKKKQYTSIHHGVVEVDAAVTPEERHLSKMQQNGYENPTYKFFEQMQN", "data": [{"substance": "KLK1 (Sigma)", "values": [{"measurement": "cleavage of amyloid fibrils in vitro, mass spectra after digestion", "result": "KLK1 cleaves amyloid fibrils (FIG. 1); in panel C, there is a clear peak at about 2423 M/Z (mass to charge ration), which is an indication of cleavage"}, {"measurement": "cleavage of soluble amyloid in vitro, mass spectra after digestion", "result": "In panel B, there are no visible peaks when KLK1 was added to soluble amyloid. This indicates that KLK1 cleaved the soluble amyloid into smaller fragments"}]}]}
